Legend:
human GPR7 = molecular target: T1, human GPR7 (Homo sapiens, UniProt P48145); assay: Aequorin-based functional assay, WTA11 cells expressing GPR7; assay type: cell-based; conditions: in words
T1 construct: expressed in transfected cells; host or cells: CHO-K1 clone WTA11 (mitochondrial apoaequorin + Galpha16)
T1 sequence (P48145 1-328): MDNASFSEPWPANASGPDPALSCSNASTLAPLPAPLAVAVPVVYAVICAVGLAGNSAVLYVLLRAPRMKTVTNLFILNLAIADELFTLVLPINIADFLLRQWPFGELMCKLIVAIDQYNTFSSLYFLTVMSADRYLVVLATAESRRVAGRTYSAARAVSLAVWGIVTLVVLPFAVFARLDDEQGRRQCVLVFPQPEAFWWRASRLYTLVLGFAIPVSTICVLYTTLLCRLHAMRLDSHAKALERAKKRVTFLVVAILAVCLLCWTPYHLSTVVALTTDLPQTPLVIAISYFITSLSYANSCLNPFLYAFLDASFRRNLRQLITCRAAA
Description: CHO—K1 cells (ATCC CRL-9618 (Bethesda, Md., USA)) were previously transfected with a plasmid encoding mitochondrial apoaequorin and Gα16. A clone obtained by limit dilution, called WTA11, was grown in Nutrient Mixture HAM's F12 medium supplemented with 10% fetal calf serum, 250 μg/ml zeocin, 100 units/ml penicillin and 100 μg/ml streptomycin. A bicistronic plasmid encoding the human GPR7 was transfected into WTA11 CHO—K1 cells, using Fugene 6 (Roche Diagnostics, Mannheim, Germany). Individual clones were selected two days after transfection with 400 μg/ml neomycin and GPR7-positive clones were confirmed by northern blotting, RT-PCR and sequencing.
Functional responses were analysed by recording the luminescence of aequorin following the addition of the ligand. In brief, cells were collected from plates with PBS containing 5 mM EDTA, pelleted, and resuspended at 10^7 cells/ml in DMEM-F12 medium and incubated with 5 μM coelenterainze H (Molecular Porbes) for 4 h at room temperature. Cells were then washed in DMEM-F12 medium and resuspended at a concentration of 2×10^6 cells/ml. Cells where then mixed with the ligand, and the light emission was recorded over 60 s using a Microlumat™ luminometer (Perkin Elmer). Results are expressed as relative light units (RLU) (FIG. 5).
(§1) In the experiments described in this section, the aequorin assay measured functional responses by recording the luminescence of aequorin in GPR7- and GPR8-expressing cells following addition of (potential) agonists, as previously described (Kotani, M. et al.). In brief, cells were collected from plates with PBS containing 5 mM EDTA, pelleted, resuspended at 5×10^6 cells/ml in DMEM-F12 medium containing 0.1% BSA, incubated with 5 μM coelenterazine H (Molecular Probes, Eugene, Oreg.) for 4 h at room temperature, and diluted in DMEM-F12 medium at a concentration of 5×10^5 cells/ml. Cells where then mixed with the ligands, and the light emission was recorded over 30 s using a Microlumat™ luminometer (Perkin Elmer, Norwalk, Conn.).

human GPR8 = molecular target: T2, human GPR8 (Homo sapiens, UniProt P48146); assay: Aequorin-based functional assay, WTA11 cells expressing GPR8; assay type: cell-based; conditions: in words
T2 construct: expressed in transfected cells; host or cells: CHO-K1 clone WTA11 (apoaequorin + Galpha16)
Description: as §1

T2 sequence (P48146 whole entry): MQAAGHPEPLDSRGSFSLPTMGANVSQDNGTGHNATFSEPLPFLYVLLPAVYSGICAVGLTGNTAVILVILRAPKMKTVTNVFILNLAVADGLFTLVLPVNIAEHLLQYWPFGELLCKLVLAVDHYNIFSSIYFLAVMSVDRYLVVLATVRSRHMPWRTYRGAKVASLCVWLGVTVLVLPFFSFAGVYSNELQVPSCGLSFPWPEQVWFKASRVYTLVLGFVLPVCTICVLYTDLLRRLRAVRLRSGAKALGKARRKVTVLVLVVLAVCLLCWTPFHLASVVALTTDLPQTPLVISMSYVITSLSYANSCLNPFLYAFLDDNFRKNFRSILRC

| activity in aequorin-based functional assay on GPR7 (human GPR7) | activity in aequorin-based functional assay on GPR8 (human GPR8) | Substance |
| --- | --- | --- |
| inactive | inactive | SPYLW (UniProt Q8N729 58-62, looked up, fragment) [pro-L8 [58-62], human peptide derived from the L8 precursor] |
| active | active | WYKPAAGHSSYSVGRAAGLL [pro-L7 [25-44], human peptide derived from the L7 precursor] |
| inactive | inactive | SPYA (PYAR; UniProt Q8NG41 51-54, looked up, fragment) [pro-L7 [51-54], human peptide derived from the L7 precursor] |

Reference: patent US20030232756A1, “Ligands for G protein coupled receptor GPR7 and GPR8 and uses thereof” (Euroscreen, S.A., priority 2002, published 2003)
